First the molecules themselves.
B1: Ib_S1_P4E.1_K4.1_C4.1_H4.1_[G2A]_A4.1_F4.1_[T8A]_T4.1 (ssRNA)
RNA: UCUCUUUAUAUAUAAUCUCUU
B2: Ic_S2_P5E.1_K5.1_C5.1_H5.1_A5.1_[T5G]_[A7C]_F5.1_[T8A]_[T9C]_[A10T]_T5.1 (ssRNA)
RNA: UUUGAUUAAUAUGAUAUCGUUCUUUCUUGUAGUCACUUUCUUUCUCGAUAUCAUAUUAAUCUUU
B3: Ic_S2_P5E.1_K5.1_C5.1_H5.1_A5.1_[T5G]_[A7T]_F5.1_[T8C]_[T9C]_[A10T]_T5.1 (ssRNA)
RNA: B2 RNA with C34U, A35C
B4: Ic_S2_P5E.1_K5.1_C5.1_H5.1_A5.1_[T5A]_[T6A]_[A7C]_F5.1_[T9A]_T5.1 (ssRNA)
RNA: B2 RNA with G32A, U33A, A35U, C36A, U37A
B5: Ic_S2_P5E.1_K5.1_C5.1_H5.1_A5.1_[T5A]_[T6A]_F5.1_[A10T]_T5.1 (ssRNA)
RNA: B2 RNA with G32A, U33A, C34A, A35U, C36U
B6: Ic_S2_P5E.1_K5.1_C5.1_H5.1_A5.1_[T5A]_[T6C]_[A7C]_F5.1_[T9A]_[A10G]_T5.1 (ssRNA)
RNA: B2 RNA with G32A, U33C, A35U, C36A, U37G
B7: Ic_S2_P5E.1_K5.1_C5.1_H5.1_A5.1_[T6A]_[A7C]_F5.1_[T8C]_[T9A]_[A10T]_T5.1 (ssRNA)
RNA: B2 RNA with G32U, U33A, A35C, C36A
B8: Ic_S2_P5E.1_K5.1_C5.1_H5.1_A5.1_[A7T]_F5.1_[T8C]_[T9G]_[A10T]_T5.1 (ssRNA)
RNA: B2 RNA with G32U, C34U, A35C, C36G
B9: Ic_S2_P5E.1_K5.1_C5.1_H5.1_A5.1_[T5C]_[A7T]_F5.1_[T8C]_[T9A]_[A10T]_T5.1 (ssRNA)
RNA: B2 RNA with G32C, C34U, A35C, C36A
B10: Ic_S2_P5E.1_K5.1_C5.1_H5.1_A5.1_[T5A]_[T6A]_[A7C]_F5.1_[T8G]_[T9C]_[A10C]_T5.1 (ssRNA)
RNA: B2 RNA with G32A, U33A, A35G, U37C
B11: Ic_S2_P5E.1_K5.1_C5.1_H5.1_A5.1_[T5G]_[T6C]_F5.1_[T8G]_[T9C]_[A10T]_T5.1 (ssRNA)
RNA: B2 RNA with U33C, C34A, A35G
B12: Ic_S2_P5E.1_K5.1_C5.1_H5.1_A5.1_[T5G]_[A7C]_F5.1_[T9G]_[A10T]_T5.1 (ssRNA)
RNA: B2 RNA with A35U, C36G
B13: Ic_S2_P5E.1_K5.1_C5.1_H5.1_A5.1_[T5A]_[T6C]_[A7T]_F5.1_[T8A]_[T9G]_[A10T]_T5.1 (ssRNA)
RNA: B2 RNA with G32A, U33C, C34U, C36G
B14: Ic_S2_P5E.1_K5.1_C5.1_H5.1_A5.1_[T5G]_[A7C]_F5.1_[T8G]_[A10G]_T5.1 (ssRNA)
RNA: B2 RNA with A35G, C36U, U37G
B15: Ic_S2_P5E.1_K5.1_C5.1_H5.1_A5.1_[T5A]_[T6C]_[A7G]_F5.1_[T9A]_[A10G]_T5.1 (ssRNA)
RNA: B2 RNA with G32A, U33C, C34G, A35U, C36A, U37G
B16: Ic_S2_P5E.1_K5.1_C5.1_H5.1_A5.1_[T5A]_[T6C]_[A7C]_F5.1_[T8C]_[T9A]_[A10T]_T5.1 (ssRNA)
RNA: B2 RNA with G32A, U33C, A35C, C36A
B17: Ic_S2_P5E.1_K5.1_C5.1_H5.1_A5.1_[A7T]_F5.1_[T8A]_[A10G]_T5.1 (ssRNA)
RNA: B2 RNA with G32U, C34U, C36U, U37G
B18: Ic_S2_P5E.1_K5.1_C5.1_H5.1_A5.1_[T5A]_[A7T]_F5.1_[T9A]_[A10G]_T5.1 (ssRNA)
RNA: B2 RNA with G32A, C34U, A35U, C36A, U37G
B19: Ic_S2_P5E.1_K5.1_C5.1_H5.1_A5.1_[T5C]_[T6C]_[A7T]_F5.1_[T8C]_[T9G]_[A10C]_T5.1 (ssRNA)
RNA: B2 RNA with G32C, U33C, C34U, A35C, C36G, U37C
B20: Ic_S2_P5E.1_K5.1_C5.1_H5.1_A5.1_[T5C]_[T6C]_F5.1_[T8G]_[T9C]_[A10T]_T5.1 (ssRNA)
RNA: B2 RNA with G32C, U33C, C34A, A35G
B21: Ic_S2_P5E.1_K5.1_C5.1_H5.1_A5.1_[T5A]_[T6A]_[A7C]_F5.1_[T9G]_[A10G]_T5.1 (ssRNA)
RNA: B2 RNA with G32A, U33A, A35U, C36G, U37G
B22: Ic_S2_P5E.1_K5.1_C5.1_H5.1_A5.1_[T5A]_[T6A]_[A7T]_F5.1_[T8C]_[A10T]_T5.1 (ssRNA)
RNA: B2 RNA with G32A, U33A, C34U, A35C, C36U
B23: Ic_S2_P5E.1_K5.1_C5.1_H5.1_A5.1_[T5C]_F5.1_[T8C]_[T9G]_[A10C]_T5.1 (ssRNA)
RNA: B2 RNA with G32C, C34A, A35C, C36G, U37C
B24: Ic_S2_P5E.1_K5.1_C5.1_H5.1_A5.1_[T5C]_[T6A]_[A7C]_F5.1_[T8A]_[T9A]_T5.1 (ssRNA)
RNA: B2 RNA with G32C, U33A, C36A, U37A
B25: Ic_S2_P5E.1_K5.1_C5.1_H5.1_A5.1_[T6G]_[A7T]_F5.1_[T8C]_[T9C]_[A10T]_T5.1 (ssRNA)
RNA: B2 RNA with G32U, U33G, C34U, A35C
B26: Ic_S2_P5E.1_K5.1_C5.1_H5.1_A5.1_[T5C]_F5.1_[T8A]_[T9A]_[A10T]_T5.1 (ssRNA)
RNA: B2 RNA with G32C, C34A, C36A

Substitutions are numbered along the chain they refer to. Numbers in names are those of the source.

The series addresses T1, PUF4 RNA-binding domain (Saccharomyces cerevisiae, UniProt P25339 537-888).
T1 sequence: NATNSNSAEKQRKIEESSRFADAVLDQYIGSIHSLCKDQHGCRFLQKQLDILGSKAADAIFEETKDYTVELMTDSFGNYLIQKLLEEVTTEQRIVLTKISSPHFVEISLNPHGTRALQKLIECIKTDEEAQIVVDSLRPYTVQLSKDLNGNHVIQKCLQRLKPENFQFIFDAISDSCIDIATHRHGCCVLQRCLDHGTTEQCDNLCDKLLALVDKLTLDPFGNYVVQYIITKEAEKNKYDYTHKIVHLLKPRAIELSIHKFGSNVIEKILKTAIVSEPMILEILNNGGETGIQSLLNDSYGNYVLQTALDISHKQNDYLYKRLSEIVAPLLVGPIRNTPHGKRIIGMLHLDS
The series can be described thus: Mg; RNA-MaP; 20 mM Na-HEPES pH 7.4, 30 mM KOAc, 0.75 mM MgCl2, 0.1% Tween-20, 5% glycerol, 0.1 mg/mL BSA, 2 mM DTT; 25 C; 0.0125-409.6 nM protein. The note with it: tags: N-His6-TEV cleaved; C-SNAP kept, Cy3B-labelled; label: tethered on chip by stalled RNA polymerase.
B1: the Kd – broadly, the constant that tells how readily two partners part at equilibrium – was 532 nM.

B2 registered a Kd of 722 nM.

As to B3, the Kd stood at 175 nM.

Molecule B4 came in with a Kd of 1.9 nM. This Kd lies about 92-fold lower than the previous one.

In turn, B5 registered a dissociation constant (Kd) of 53.3 nM.

The molecule B6 returned a Kd of 28.5 nM. This Kd lies about 1.9-fold lower than the previous one.

B7 showed a Kd of 13.7 nM. This Kd is about 2.1-fold lower than that of the molecule before.

Take B8: the dissociation constant Kd came to 86.5 nM. Against the preceding molecule, the Kd is about 6.3-fold higher.

Consider B9, for which binding was characterised by a dissociation constant (Kd) of 80.5 nM.

B10 returned an equilibrium dissociation constant (Kd) of 611 nM.

In the case of B11, the Kd was found to be 905 nM.

In turn, B12 gave a Kd of 60.9 nM.

Take B13: the Kd was determined as 737 nM. Against the preceding molecule, the Kd is about 12-fold higher.

As for B14, the Kd was 492 nM.

B15 registered an equilibrium dissociation constant (Kd) of 69.1 nM.

Regarding B16, binding was characterised by a dissociation constant (Kd) of 591 nM.

With B17, the Kd was found to be 15.8 nM. Compared with the last molecule, the Kd is about 37-fold lower.

In turn, B18 had a Kd of 5.21 nM.

B19 returned a Kd of 101 nM.

With B20, the Kd came out at 496 nM.

In the case of B21, binding was put at a Kd of 26 nM.

B22: the affinity, expressed as Kd, was 76.2 nM. This Kd is about 2.9-fold higher than that of the molecule before.

B23 returned a dissociation constant Kd of 641 nM.

For the molecule B24, binding was put at a Kd of 10.8 nM. This Kd is about 59-fold lower than that of the molecule before.

For B25, binding was characterised by a dissociation constant (Kd) of 21.6 nM.

With B26, binding was characterised by a dissociation constant (Kd) of 25.3 nM.

The values are drawn from paper PMC9352680, “A comprehensive thermodynamic model for RNA binding by the Saccharomyces cerevisiae Pumilio protein PUF4”.
